Measurements as given in patent publication US20210079092A1 (UNIVERSITY OF TOKYO, published 2021).

T1: SEQ ID NO 28
T1 construct: Short fragment obtained by dividing the 13-aa immunogen peptide; also called divided peptide consisting of 7 amino acids
T1 peptide: CDTTATT

T2: peptide CDTTATTEPAVHD (entire-length peptide of 13 amino acids used as an immunogen)
T2 construct: Synthetic peptide with an added N-terminal cysteine; It was KLH-coupled only for immunization
T2 peptide: CDTTATTEPAVHD

T3: SEQ ID NO 29
T3 construct: Short fragment obtained by dividing the 13-aa immunogen peptide; also called divided peptide consisting of 7 amino acids
T3 peptide: TATTEPA

T4: SEQ ID NO 30
T4 construct: Short fragment obtained by dividing the 13-aa immunogen peptide; also called divided peptide consisting of 7 amino acids
T4 peptide: TEPAVHD

T5: human CADM1 v9 fragment (human, UniProt Q9BY67-4 45-371)
T5 construct: Extracellular region of CADM1 v8/9 released from cells by protease cleavage; It was tested in, or purified from, the culture supernatant of SBC5 cells stably expressing CADM1 v8/9 (approximately 80 kDa, O-glycosylated region); also called v9 fragment of CADM1; CADM1 v8/9 fragment
T5 sequence: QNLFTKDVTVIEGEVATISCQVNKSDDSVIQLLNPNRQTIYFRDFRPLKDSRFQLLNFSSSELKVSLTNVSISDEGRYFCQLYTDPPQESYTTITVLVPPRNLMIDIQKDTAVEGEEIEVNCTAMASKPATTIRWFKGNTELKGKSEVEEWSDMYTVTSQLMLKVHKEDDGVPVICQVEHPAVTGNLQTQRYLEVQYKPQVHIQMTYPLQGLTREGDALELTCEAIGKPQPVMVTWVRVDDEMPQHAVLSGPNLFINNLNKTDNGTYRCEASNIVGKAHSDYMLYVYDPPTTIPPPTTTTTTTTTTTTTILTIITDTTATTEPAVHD


Tests used:
SEQ ID NO 28 = molecular target: T1, SEQ ID NO 28; assay: ELISA on coated peptide, HRP-labeled antibody
Procedure: (§1) The anti-CADM1 v9 antibodies F1222 and F1315 were previously HRP-labeled using Peroxidase Labeling Kit-NH₂ (DOJINDO LABORATORIES), and epitopes were narrowed down according to an ELISA method. Peptide synthesis was outsourced to Toray Research Center, Inc. The peptide was dissolved in 10% DMSO/PBS to prepare a peptide solution having a concentration of 1 mg/mL. […] of the peptide diluted in a carbonate buffer to a concentration of […] was added to Nunc MaxiSorp 96-well plate (Thermo Fisher Scientific) and was left at rest at 4° C. overnight for immobilization. The plate was washed with PBS-T twice, and […] of 1%/BSA/PBS-T was added. The plate was left at rest at room temperature for 1 hour for blocking. The plate was washed with PBS-T twice, and […] of the HRP-labeled antibody diluted in 1% BSA/PBS-T to a concentration of 100 ng/mL was added, followed by incubation at room temperature for 1 hour. The plate was washed with PBS-T four times, and […] of TMB Soluble Reagent (ScyTek Laboratories) was then added for color development. […] of TMB Stop Buffer (ScyTek Laboratories) was further added to terminate the reaction. Finally, using the Ensight plate reader (PerkinElmer), the wavelength at 450 nm was measured.
(§2) In order to narrow down the epitope of the anti-CADM1 v9 antibody, a peptide consisting of 13 amino acids in entire length (SEQ ID NO: 2) used as an immunogen, and peptides obtained by dividing the aforementioned peptide into short fragments (SEQ ID NOS: 28 to 30) were synthesized, and the reactivity of these peptides to the anti-CADM1 v9 antibody was studied using an ELISA method.

[1] = molecular target: T2, peptide CDTTATTEPAVHD (entire-length …); assay: ELISA on coated peptide, HRP-labeled antibody
Procedure: as §1, §2

SEQ ID NO 29 = molecular target: T3, SEQ ID NO 29; assay: ELISA on coated peptide, HRP-labeled antibody
Procedure: as §1, §2

SEQ ID NO 30 = molecular target: T4, SEQ ID NO 30; assay: ELISA on coated peptide, HRP-labeled antibody
Procedure: as §1, §2

human CADM1 v9 fragment [2] = molecular target: T5, human CADM1 v9 fragment; assay: sandwich ELISA on culture supernatant, capture E9935, detection HRP-labeled F1222
Procedure: (§3) PBS-T (137 mM NaCl, 8.1 mM […], 2.68 mM KCl, 1.47 mM KH₂PO₄, and 0.05% Tween 20) was used for washing twice, and […] of 1%/BSA (Wako Pure Chemical Industries, Ltd.)/PBS-T was added. The plate was left at rest at room temperature for 1 hour for blocking. The plate was washed with PBS-T twice, and thereafter, a standard for a calibration curve, a culture supernatant, and serum or pleural effusion were added, followed by incubation at room temperature for 1 hour. The plate was washed with PBS-T four times, and […] of the detection antibody diluted in 1% BSA/PBS-T to a concentration of 100 ng/mL was added, followed by incubation at room temperature for 1 hour. The plate was washed with PBS-T six times, and […] of TMB Soluble Reagent (ScyTek Laboratories) was then added for color development. […] of TMB Stop Buffer (ScyTek Laboratories) was further added to terminate the reaction. Finally, using an Ensight plate reader (PerkinElmer), the wavelength at 450 nm was measured.
(§4) (A) The total amount of CADM1 fragment or other cells and (B) the amount of the CADM1 v9 fragment, secreted in the culture supernatant of SCLC were measured according to a sandwich ELISA method. As a capture antibody, the anti-CADM1 mouse monoclonal antibody E9935 was used. As detection antibodies, the anti-CADM1 antibody E9919 and the anti-CADM1 v8/9 antibody F1222, which were HRP-labeled, were used. […]

human CADM1 v9 fragment [3] = molecular target: T5, human CADM1 v9 fragment; assay: sandwich ELISA on culture supernatant, E9935 as capture antibody, detection HRP-labeled F1222
Procedure: as §3, §4

| binding result (SEQ ID NO 28) | binding result [1] | binding result (SEQ ID NO 29) | binding result (SEQ ID NO 30) | binding result (human CADM1 v9 fragment [2]) | binding result (human CADM1 v9 fragment [3]) | Binder |
| --- | --- | --- | --- | --- | --- | --- |
| no binding (tested: 100 ng/mL antibody) | binds | no binding (tested: 100 ng/mL antibody) | no binding (tested: 100 ng/mL antibody) | binds | – | anti-CADM1 v9 antibody F1222 (antibody, V domains shown, Mouse monoclonal antibody from a hybridoma (Cadm1-/- Balb/c mice); It was HRP-labeled (Peroxidase Labeling Kit-NH2) in the sandwich and peptide ELISAs; also called anti-CADM1 v8/9 antibody F1222) VH: EVQLVESGGGLVQPKGSLKLSCAASGFTFNTYAMNWVRQAPGKGLEWVARIRSKSNYYTTYYADSVKDRFTISRDDSQSMLYLQMNNLKTEDTAMYYCIRQRHGNFYWGQGTLVTVSA VL: DIVLTQSPASLAVSLGQRATISCKASQSVDYDGYSYMNWYQQKPGQPPKLLIYAASNLESGIPARFSGSGSGTDFTLNIHPVEEEDAATYYCQQSNEDPPTFGAGTKLELK |
| – | – | – | – | – | binds | anti-CADM1 mouse monoclonal antibody E9935 (antibody, V domains shown, Mouse monoclonal antibody from a hybridoma; It served as the capture antibody in the sandwich ELISA and, crosslinked to Protein A Sepharose, for purification; also called anti-CADM1 antibody E9935) VH: QVQLQQSGTELAKPGASVKMSCKASGYTFTHYWMHWVKQRPGQGLEWIGFINPGTGYTEYNQKFKDKATLTADKSSSTAYIQLSSLTSEDSAVYYCSRASYYSGSSHAWFGFWGQGTLVTVSA VL: DIVLTQSPASLAVSLGQRATISCKASQSVNYDGDNYMNWYQQKPGQPPKLLIYAASNLESGIPARFSGSGSGTDFTLNIHPVEEEDAATYYCQQSYEDPWTFGGGTKLEIK |
